This assay concerns the target A/Texas/37/2024 (H5N1) HA (influenza A virus A/Texas/37/2024 (H5N1)). The assay is described as follows: BLI. On the technique in general: In BLI a coated tip is dipped into the sample, and binding shifts an interference pattern.

This is an account of results in paper doi:10.1101/2025.11.06.687086 (2025).

One may read the Kd as the concentration at which binding is half-saturated. Read a high Kd as a looser complex.

B1: HB31 VH R55G germline revertant Fab (Fab, V domains shown)
VH: EVQLLESGGGLVQPGGSLRLSCTVSGFTSSNYDMSWVRQAPGKGLEWVSGISGTGGDTYYADSVKGRFTISRDNSKNTLSLQMNSLRADDTAVYFCARDRPVLRYFDWQPYGLDVWGKGTTVTVSS
VL: QSALTQPPSASGSPGQSVTISCTGTSSDVGGYNYVSWYQQYPSKAPKLMIYEVSKRPSGVPDRFSGSKSGNTASLTVSGLQAEDEADYYCNSYAGSNLYVFGTGTKVTVL
B1 came in with a Kd of 10.5 nM.

B2: HB31 Fab (Fab, V domains shown)
VH: EVQLLESGGGLVQPGGSLRLSCTVSGFTSSNYDMSWVRQAPGKGLEWVSGISGTGRDTYYADSVKGRFTISRDNSKNTLSLQMNSLRADDTAVYFCARDRPVLRYFDWQPYGLDVWGKGTTVTVSS
VL: QSALTQPPSASGSPGQSVTISCTGTSSDVGGYNYVSWYQQYPSKAPKLMIYEVSKRPSGVPDRFSGSKSGNTASLTVSGLQAEDEADYYCNSYAGSNLYVFGTGTKVTVL
Molecule B2 registered a Kd of 4.5 nM.
